The values that follow come from PMC4764553 (eLife, 2016).

This experiment concerns the target T1, Human nucleosome core particle (human histone octamer with the 147-bp Widom 601 DNA) (human, UniProt P68431 1-136; P62805 1-103; P04908 1-130; P06899 1-126).
T1 construct: also called recombinant human NCP; human NCP
Description: ITC. As to conditions: both partners purified.

Take HPMVTRSKADQ [IE1-CTD mutant lacking the N-terminal segment (Δ476–480)]: the dissociation constant (Kd) turned out to be 12 µM.

GGKSTHPMVTRSKADQ [IE1-CTD peptide (chromatin-tethering domain of hCMV IE1, a.a. 476–491)] returned a dissociation constant Kd of 0.4 µM.

B1: Full-length hCMV (Towne) IE1 (natural protein)
chain: MESSAKRKMDPDNPDEGPSSKVPRPETPVTKATTFLQTMLRKEVNSQLSLGDPLFPELAEESLKTFERVTEDCNENPEKDVLAELVKQIKVRVDMVRHRIKEHMLKKYTQTEEKFTGAFNMMGGCLQNALDILDKVHEPFEEMKCIGLTMQSMYENYIVPEDKREMWMACIKELHDVSKGAANKLGGALQAKARAKKDELRRKMMYMCYRNIEFFTKNSAFPKTTNGCSQAMAALQNLPQCSPDEIMAYAQKIFKILDEERDKVLTHIDHIFMDILTTCVETMCNEYKVTSDACMMTMYGGISLLSEFCRVLSCYVLEETSVMLAKRPLITKPEVISVMKRRIEEICMKVFAQYILGADPLRVCSPSVDDLRAIAEESDEEEAIVAYTLATRGASSSDSLVSPPESPVPATIPLSSVIVAENSDQEESEQSDEEEEEGAQEEREDTVSVKSEPVSEIEEVAPEEEEDGAEEPTASGGKSTHPMVTRSKADQ
Regarding B1, the “fold weaker binding than IE1-CTD alone” value was approximately 5 fold.
